Experiment: soluble on expression in E. coli; label from the status in PepcDB or PDB records

Row | Sequence | soluble on expression in E. coli
1 | MRNTIEIEDPNHRPFTISSNYAYYIGYLDLRPDGMGYHKRGEMNGLWYPPLRVLKNIYVSDGKTVFKPAHAEIGYSEARFEFYGTTLQISFQDDNDFEIAVKNASNDVRKLIVELHPETVWYTVNDTRIKVNRRSAIIYSHMFPETRLRIAASSEFSIENGRLSLLADGKSSLRISSACLHSHRPPIRVNRYRDIDRFSLLRGGGQIGENFRTAKDNLIRLSLINQETGYGLTAGHPDFPWYFGIDTLLSFNGILDAGLFELAFGSLNILARYSKSGKIPHEILTSGKVYNDGDLEETALFPYAVFKYAEWAGYTEEMRHLATIASESFNYLFAHGFQGRGIMEDPKAGEGVDIDTISFTIMSLMELQKVMDMDQEAFGGIADAVKPTEAIDALRKTVQSFWMSERRTFANRIVDGVPVDLGFWTSIIPFYTGIAGIDQYRKFVSDGGGLSRISSSSGIVVDASGNSMPVNTGMFVLGSIRYGDAENAARYFKMLDRSLGLFSPGAYPEISNNPQGCYLQAWSAAIYIESIVEGFFGIHSEGGRLISKPFNSSLMPGGATLKNVRFRNKYYDFIL | not soluble
2 | MTKQPPIAKADLQKTQGNRAPAAVKNSDVISFINQPSMKEQLAAALPRHMTAERMIRIATTEIRKVPALGNCDTMSFVSAIVQCSQLGLEPGSALGHAYLLPFGNKNEKSGKKNVQLIIGYRGMIDLARRSGQIASLSARVVREGDEFSFEFGLDEKLIHRPGENEDAPVTHVYAVARLKDGGTQFEVMTRKQIELVRSLSKAGNNGPWVTHWEEMAKKTAIRRLFKYLPVSIEIQRAVSMDEKEPLTIDPADSSVLTGEYSVIDNSEE | soluble
3 | MGSSHHHHHHSSGLVPRGSHMLDFNIEGLIPKNMEKRGELVLNEYLKEIEDVFNHRKIPENGIDDEKIKLFLKFLSMMDTDKDPKSVRIGEREARTYSKIHEELSSGFCHGIGRSGNLVDPQPKASGASIMYALTNKILESFFKQLGLNVHAIATPISTGMSISLCLSAARKKYGSNVVIYPYASHKSPIKAVSFVGMNMRLVETVLDGDRVYVPVEDIENAIKKEIELGNRPCVLSTLTFFPPRNSDDIVEIAKICENYDIPHIINGAYAIQNNYYLEKLKKAFKYRVDAVVSSSDKNLLTPIGGGLVYSTDAEFIKEISLSYPGRASATPVVNTLVSLLSMGSKNYLELVKNQKNSKKLLDELLNDLSKKTGGKFLDVESPIASCISVNSDPVEIAAKLYNLRVTGPRGIKKTDHFGNCYLGTYTHDYIVMNAAIGVRTEDIVNSVSKLEKILL | soluble
4 | MDLPYYHGCLTKRECEALLLKGGVDGNFLIRDSESVPGALCLCVSFKKLVYSYRIFREKHGYYRIETDAHTPRTIFPNLQELVSKYGKPGQGLVVHLSNPIMR | soluble
5 | MSLSKEVVYVPTGSIAKERSIFFDLKHMDKLTDLVNSGSFSADSKIKSEASGNIRMDVILSADNKFAAVQLFQFVPYTYQPVTAVHYFTNDAAAAVAAFLTKSQLNEGHHHHHH | soluble
6 | MSLDRLIHWYNMAVYPSIFATMLPVDPRRALGAFLRSHRERLPPPPLALGRRRTPGWRREELAEACGVSLTWITWLEQGRDVSASPHALARLAEALHLAPAERGYLFELAGRRDPVSPVASDDGIPPAVLALPGHMNVPAYLLDRTWTARAWNSAASRLFTGWLDGDHDRNLLRFIFLSPAAPRLIADWDQRAHRVVAEFRADFSRRLRDPALQALVESLAAQSQAFRTLWHEQAVLDREGGERSFLNPARRFHQSTLILAANADIKLVSLVPMDGEEFEGHHHHHH | soluble
7 | MKSARKNKNIIIDQNEFGILSLIKEGLLGTCTHLMNEKEVNEIIKSGKFKGESFPYPLSFAPKNAEEALNDIKSGDRIDLMLDEKVVGHIDFKSQFKNNKNFSDIFSPNTCSLEDMGTTCISGKIEIYNSQIEKIKENFQQIKNNLNAQKITAIVSSFDPLHRAHERMFRWTIDKADLVVIFLVESFDVNGFEFELKEAYLKKFIQNYLPPDRIFIFPLKNINIFHAHLNPGLESIIAKSLGCTKLVVGQNHTGLGMFYDDNQPKTILDDFSKDYGIEVIVLPEFVFCDQCRMIVSTRSCPHGCHHHLHYNSQSLKDLLRAGIIPPAIFIRKEVSSVILTSLFPNRLKNMQKIYNELFPTDGILEYKNDEEFYQKLLEIHQMSYMV | not soluble
8 | MGSDKIHHHHHHMLRAELHVHSSFSDGRDGVRKILEAAVEKKLEVIAITDHDTVQGSLEAIDIVKEEHLPLKVLPGCEVTASTGHVLVYGITKDIEPRMSVEETCKIARELGGVCFLAHPFDFIRKGSVRLKDFKMVDGIETFNAKSYFNFLAKRYAKKLSKPEIAGSDAHSARAVGLAINYLPDEFDLLNALFHARFDGRRVSIRERLAFLRFRLNQRL | not soluble
9 | MSDFRLKVFLSVAKNLSFTKASQELFVSQPAITKHIQELETCYQVRLFDRQGNKISLTEAGKLLQEHSEKILEDYKRLEYEMHLLHNEYIGDLKLGASTTISQYVLPPLLANFIAKFPQVNLSLLNGNSREIEAALQEHRIDLGLVEGICRLPNLRYTTFLQDELVAVVHTGSKLSLPDEITPEDLSRIPLVLRERGSGTLDVFERALSEHNMKLSSLNVLLYLGSTESIKLFLEHTDCIGIVSIRSISRELLSGTFRVIEIKGMPMLREFCFAQPQGQESGLSQVLMQFAMHHNKKL | not soluble
10 | MAKKKKKKSFNTTRPTDPPVYPVTVPFLGHIVQFGKNPLEFMQRCKRDLKSGVFTISIGGQRVTIVGDPHEHSRFFSPRNEILSPREVYTIMTPVFGEGVAYAAPYPRMREQLNFLAEELTIAKFQNFVPAIQHEVRKFMAENWKEDEGVINLLEDCGAMIINTACQCLFGEDLRKRLNARHFAQLLSKMESSLIPAAVFMPWLLRLPLPQSARCREARAELQKILGEIIVAREKEEASKDNNTSDLLGGLLKAVYRDGTRMSLHEVCGMIVAAMFAGQHTSTITTSWSMLHLMHPKNKKWLDKLHKEIDEFPAQLNYDNVMDEMPFAERCVRESIRRDPPLLMVMRMVKAEVKVGSYVVPKGDIIACSPLLSHHDEEAFPNPRLWDPERDEKVDGAFIGFGAGVHKCIGQKFALLQVKTILATAFREYDFQLLRDEVPDPDYHTMVVGPTLNQCLVKYTRKKKLPSHHHHHH | soluble
11 | MANFIIELSADESFNIVINDLKPIETYRVEMFLSDYYCINAPMRLAHDVLWKSTATFVSDTNGIINISQTPSCSGSYEGISTMGLFFNAKPLTNKRKKLPNSISKIPLLDHFFVGIKIMQGNTVIAERTFTRHYMSSQISHQDIYGKHFQGRLFYDKKAIKTPSIDYCER | not soluble
12 | MGSDKIHHHHHHMPIAIYQGHHHSLAPADINIVIDVIRAFTVAHYAFIGGAKEILLVRTADEAFALKDTYPDYVLTGEEKGVGISGFDLDNSPKRMAGQNMTDKSLIQKTTNGVTAALGALNAKHLFVTGFSNAKTTAQHVKKLVANDCVINIVASHPSGDDDMACAEYIKGIIEGTNVVTAAEAIERIKGSSVAEKFFDCRQPLFDSEDIVYCTKELTGDFVMKVKQDGEVPTIERVII | not soluble
13 | MAHHHHHHMRSNCAPLGRVKIRILDLTVLSEDASDFVYDGLYVVSRLGPDAQRTNILCNGADSAGGRCWNEVFMFHFEGNPPEFRETAPTLSKSGLDVTVGQHISTYHDGPSLGNPSREYILPQQPHEVKRGLLAPPWMGGSCALPAITLELWRYSLSSDDCLARYQFCIPLEMSSGNIADRVVRLASASSYSVQFALRIRVALSGYDGGALGFENYMPAMSPANLPVLWRH | not soluble
14 | MIVRPVTSADLPALIELARSTGTGLTTLPANEQRLQHRVSWAEKAFRGEAERGDADYLFVLEDDAGKVVGISAIAGAVGLREPWYNYRVGLTVSASQELNIHREIPTLFLANDLTGNSELCSLFLHADHRSGLNGKLLSRARFLFIAEFRHLFGDKLIAEMRGMSDEEGRSPFWESLGRHFFKMEFSQADYLTGVGNKAFIAELMPKFPLYTCFLSEEARGVIGRVHPNTEPALAMLKAEGFSYQGYVDIFDAGPAIEAETDKIRAIAESQNLVLAVGTPGDDAEPYLIHNRKREDCRITAAPARAAAGTLVVDPLTAKRLRLSAGASVRAVPLSAQKRG | not soluble
15 | MSFIKTFSGKHFYYDKINKDDIVINDIAVSLSNICRFAGHLSHFYSVAQHAVLCSQLVPQEFAFEALMHDATEAYCQDIPAPLKRLLPDYKRMEEKIDAVIREKYGLPPVMSTPVKYADLIMLATERRDLGLDDGSFWPVLEGIPATEMFNVIPLAPGHAYGMFMERFNDLSELRKCA | soluble
16 | SLRITAIREIAVPLQGNISNSLVSFAEHTVSLVALVSDVVRDGRPLIGYAFDSIGRYAQPGLMRERFIPRLLQAAPHELLDDGGQAFDPARASAIMLRNEKPGGHGDRAAAVGALELAFWDLNAKLRDEPAYCTIARHVGRPAQAGATQVYAAGGYYYDSGDPLQRLRDEFRGYLDQGFVKFKMKIGGASLADDLARIEAALGVAGEGANLAVDANGRFDLDTALAYARALEPYGLRWYEEIGDPLDYHLNSLVAQAYAGTIATGENLFSLPDVRNLLHFAGVRPGRDILQMDPGLSYGLTEYLRMMAAVEAAGFGRSCLHPHGGHLINLHIAAGLGLGGCEAYPGVFQPFGGYPAACALGAGQVRPTDAPGFGLEQKQELAPYISVLAHG | soluble
17 | NKDFWIKGMGNFTLAKGRYEVYEEPDYASYGQGYRSRIGQPINFNYGYIAERLFIDENDVANSPSQTSFNGGAMPGDIKYKDLNNDGKITSEDQIFLGYPNQPEITYGFGFSTGYKGFDLSMFFQGNARVSFFIDPRNTSPFVNYDAGGKTGVQQCLDVIAKDHWSEDNRNIYAFWPRLSPTLVENNMQTSTWWMHDGSFIRLKTVELGYTFSQKALKKIGVQSLRLYLTGSNLLTFSKFKLWDAEMGNNGLGYPIQRVYNLGININF | not soluble
18 | MSLQPTAGETTFERVRRTRKLRIGAVNGGAPYYYRDLASGQWKGFYIDICKALADEMECELDVTETTWGNSVLDLQAGKTDVFFGLNPTPKRALVVDFSVPVFANAFTFITRKGFERKTWAEMNDPAVRIAVDAGSSHDAVVTRLAPKAQITRLKGADDATAALQAGRVDAQCLVFILSLTVLKKNPALGQFTLPTPIFSTTSNAGFRREADKTWRDYVSTWIEFNKGMGFIRSAIIGNLESEGHHHHHH | not soluble
19 | MASIELRNVQTELAAKNLQFKVLTEKFLEQRKELFDAKKTDSNVEYVECLSEKLRVATERISDLEKETKEGKQVANEEIGRLEKLLREAQQKRDAKIDESYQTFLRIELLVANLGESTDPENEKRIKNLMPAAKTGIPPEGVLRLTINALDSAARESKKKTMAIESLTKQVDDANKLTEVYMKRLEELEDKHRFEEALTLKIQAMMIETTGQLEAQKKIIADLQKKNDDLMKEEEGEEDYEEEENYEVEEDFEDEEEYDEEGEEEDYE | not soluble
20 | MSLAMLMLLAACSERSADWSLYNVKGHLPDLKFSLPGAHGKTVSSDDLKGKTVLLFFGYASCPDVCPTTMAQLTAVLQQLGEQARDVRILFVSVDPHRDTPDILQAYVNAFNNNAIGVTGNEKQIADLARRYRLAYQIEKPKPGDDADIYDVTHSRGVYIFDNQGKARLLASDTDTIDTMVKDLRQLIAQTQEGHHHHHH | soluble

From the DeepSol protein solubility set
